Assay results from patent publication US7919091B2, “Lipolysis stimulated receptor (LSR) specific antibodies” (Serono Genetics Institute S.A., priority 1997, dated 2011).

Tests used:
LSR = biological target: T1, LSR (Rattus norvegicus, UniProt Q9WU74); assay: LSR activity of binding, internalization and degradation of lipoproteins in the presence of leptin, rat hepatocytes; format: cell-based; conditions: increasing concentrations of leptin, difference with/without 500 μM oleate
T1 construct: from tissue; host or cells: rat liver plasma membranes / solubilized rat liver membrane proteins
T1 sequence (Q9WU74 36-593): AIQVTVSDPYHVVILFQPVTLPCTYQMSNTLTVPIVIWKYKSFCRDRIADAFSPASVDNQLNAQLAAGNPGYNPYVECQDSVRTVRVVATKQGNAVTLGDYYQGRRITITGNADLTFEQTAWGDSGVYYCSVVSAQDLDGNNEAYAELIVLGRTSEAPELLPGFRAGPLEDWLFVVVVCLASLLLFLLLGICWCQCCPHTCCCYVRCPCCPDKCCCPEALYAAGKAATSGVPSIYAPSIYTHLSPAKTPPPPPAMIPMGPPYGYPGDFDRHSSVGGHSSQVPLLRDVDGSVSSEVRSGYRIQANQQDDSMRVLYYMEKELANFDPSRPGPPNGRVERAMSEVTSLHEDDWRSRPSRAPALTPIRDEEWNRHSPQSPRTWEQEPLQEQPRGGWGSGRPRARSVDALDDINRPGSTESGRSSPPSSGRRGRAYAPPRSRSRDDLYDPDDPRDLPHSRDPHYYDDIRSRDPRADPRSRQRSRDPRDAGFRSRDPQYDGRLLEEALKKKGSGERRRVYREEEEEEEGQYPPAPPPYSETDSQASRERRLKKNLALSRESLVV
T1 sequence (Q9WU74 36-525 isoform Q9WU74-3 limits assumed): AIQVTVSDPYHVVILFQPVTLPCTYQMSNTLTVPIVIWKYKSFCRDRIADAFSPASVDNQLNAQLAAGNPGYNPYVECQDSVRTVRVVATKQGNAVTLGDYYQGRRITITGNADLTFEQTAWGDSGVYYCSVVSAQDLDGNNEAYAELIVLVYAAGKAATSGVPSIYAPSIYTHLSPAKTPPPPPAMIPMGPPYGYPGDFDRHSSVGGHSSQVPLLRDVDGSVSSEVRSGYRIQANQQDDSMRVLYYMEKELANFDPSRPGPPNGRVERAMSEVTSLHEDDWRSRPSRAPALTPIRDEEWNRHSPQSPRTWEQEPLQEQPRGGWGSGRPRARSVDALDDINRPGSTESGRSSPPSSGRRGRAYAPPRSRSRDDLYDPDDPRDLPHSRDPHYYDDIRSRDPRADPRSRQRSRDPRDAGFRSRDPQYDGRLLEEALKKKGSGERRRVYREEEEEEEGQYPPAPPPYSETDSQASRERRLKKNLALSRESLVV
Experimental: Rat hepatocytes in primary culture are incubated at 37° C. for 30 min with an increasing concentration of leptin, and then incubated at 37° C. for 4 hours with either 50 μg/ml of ^125I-LDL (specific activity: 209 cpm/ng) or 50 μg/ml of ^125I-VLDL (specific activity: 157 cpm/ng) in the absence or in the presence of 500 μM oleate. The cells are then washed and the quantities of ^125I-lipoproteins bound, incorporated and degraded are measured as described above in Example 1 (Bihain and Yen, 1992). The results shown in FIG. 23 represent the differences obtained between the cells incubated with or without oleate. Each point represents the mean of 3 measurements. The standard deviation for each point is included in the symbol.

[1] = Postprandial lipemic response in mice after a high-fat meal; format: in vivo; conditions: 50 μg leptin i.v. with test meal; ob/ob, db/db and control mice
Experimental: Control, ob/ob and db/db mice, starved since the day before, are force-fed with a meal which is very high in fat [60% fat (37% saturated, 27% monounsaturated and 36% polyunsaturated fatty acids), 20% protein and 20% carbohydrate] providing 56 kcal of energy/kg of the weight of the animal. Immediately after the meal (time=0 hour), the mice are injected intravenously with 200 μl of physiological saline solution. At various times, 20 μl of blood are collected via the caudal vein in tubes containing 90 μg of disodium EDTA, and after separating the plasma by centrifugation, the plasma concentration of triglyceridemia is determined with the aid of an enzymatic assay kit. Each point on the curves presented corresponds to the mean with standard deviation obtained for 3 measurements per animal and for 3 different animals.
The procedure is the same as above, except that immediately after the meal (time=0 hour), the mice are injected intravenously with either 200 μl of physiological saline solution, or 200 μl of the same solution containing 50 μg of murine recombinant leptin.
ob/ob mice, starved since the day before, are force-fed with a meal identical to that described above. […] Blood is collected between 2 and 3 hours after the meal and the plasma concentration of triglycerides (TG) is measured. […]

LSR receptors = assay: Long-term treatment with leptin on ob/ob mice: LSR receptor number and LSR mRNA; format: in vivo
Experimental: The ob/ob obese mice received a daily injection of either leptin, or of an equivalent volume of sterile PBS, for 30 days. The injected doses are 50 μg/animal from day 0 to day 4, 100 μg/animal from day 5 to day 17, and 150 μg/animal from day 18 to day 30. Several parameters indicated below are measured: • the weight (FIG. 29 A): the change in weight is measured for 6 animals, over the duration of the treatment; • the postprandial lipemic response (FIG. 29 B): it is measured according to the protocol detailed in Example 5 on three animals in each group, on day 29; • the apparent number of LSR receptors (FIG. 29 C): it is measured according to the protocol detailed in Example 4 on three animals in each group, on day 30; • the quantity of LSR mRNA ([…]): it is estimated by Northern blotting as indicated in the protocol of Example 2.

[2] = Clearance of 125I-leptin in mice; format: in vivo
Experimental: The female control, ob/ob, or db/db mice (6-8 weeks), on an empty stomach, are anaesthetized and receive via the saphenous vein an injection of 80 ng of murine recombinant ^125I-leptin or of ^125I-β2-microglobulin (Sigma, labelled by the Iodobeads method, like leptin). Five minutes later, the animals are infused with a physiological saline solution (15 ml, at 4° C.). The tissues are collected and counted for their radioactivity (Gamma counter). In some cases, an anti-LSR antibody or a control protein are injected 30 minutes after injection of ^125I-leptin. It is important to note that the labelling of leptin with ^125I has no effect on its biological activity.

binding, internalization and degradation of VLDLs and LDLs (LSR): increases | quantity of mRNA encoding the subunits of the LSR receptor (LSR receptors; leptin 30 days, Northern blotting of liver RNA): increase
B1: leptin: mouse recombinant leptin with hexahistidine end, expressed in E. coli (protein, UniProt P41160 22-167, looked up)
Leptin: VPIQKVQDDTKTLIKTIVTRINDISHTQSVSAKQRVTGLDFIPGLHPILSLSKMDQTLAVYQQVLTSLPSQNVLQIANDLENLRDLLHLLAFSKSCSLPQTSGLQKPESLDGVLEASLYSTEVVALSRLQGSLQDILQQLDVSPEC
modifications: hexahistidine tag
notes: mouse recombinant leptin with hexahistidine end, expressed in E. coli
postprandial lipemic response (plasma triglycerides) [1]: reduce | apparent number of LSR receptors at the surface of the cells (LSR receptors; day 30 of leptin treatment): increase | renal capture of leptin ([2]; between control, ob/ob and db/db lines, 5 minutes after injection): no difference | quantity of leptin selectively captured by the liver ([2]; obese (ob/ob, db/db) mice compared with control mice, 5 minutes after injection): reduced | speed of clearance ([2]; radiolabelled recombinant leptin, obese and control mice): rapid speed of clearance | injected dose found in liver and kidney ([2]; radiolabelled recombinant leptin, obese and control mice, after 10 minutes): 50%
